Patent publication US20240317851A1 (LANOVA MEDICINES, published 2024)

T1: human Claudin 6 (human, UniProt P56747 1-220)
T1 construct: whole, on cells; also called CLDN6
T1 sequence (looked up): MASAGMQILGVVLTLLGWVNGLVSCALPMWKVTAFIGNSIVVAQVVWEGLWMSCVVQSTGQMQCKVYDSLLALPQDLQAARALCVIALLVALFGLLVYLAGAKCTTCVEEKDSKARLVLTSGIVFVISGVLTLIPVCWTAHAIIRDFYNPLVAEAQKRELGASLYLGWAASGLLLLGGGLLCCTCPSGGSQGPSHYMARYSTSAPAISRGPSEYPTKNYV

T2: human Claudin 3 (human, UniProt O15551 1-220)
T2 construct: whole, on cells; also called CLDN3
T2 sequence (looked up): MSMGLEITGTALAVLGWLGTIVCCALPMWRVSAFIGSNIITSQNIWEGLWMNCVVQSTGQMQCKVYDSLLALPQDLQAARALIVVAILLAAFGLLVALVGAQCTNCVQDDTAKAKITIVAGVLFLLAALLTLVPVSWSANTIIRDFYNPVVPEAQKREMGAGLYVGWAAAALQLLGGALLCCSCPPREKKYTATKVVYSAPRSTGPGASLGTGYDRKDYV

T3: human Claudin 9 (human, UniProt O95484 1-217)
T3 construct: whole, on cells; also called CLDN9; CLND9
T3 sequence (looked up): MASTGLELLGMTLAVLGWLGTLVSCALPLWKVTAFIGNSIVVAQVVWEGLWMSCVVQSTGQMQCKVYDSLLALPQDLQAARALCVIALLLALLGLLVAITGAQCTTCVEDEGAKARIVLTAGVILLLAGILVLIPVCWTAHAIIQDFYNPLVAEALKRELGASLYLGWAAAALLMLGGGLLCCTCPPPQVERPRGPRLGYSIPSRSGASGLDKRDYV


Tests used:
[1] = molecular target: T1, human Claudin 6; test: flow cytometry, HEK293/H_CLDN6 cells, Ab titrated from 100 nM
Experimental: In this example, cell-based binding of humanized antibodies (hu Abs) on human CLDN6 expressing cells were assessed using flow cytometry.
(§1) Briefly, the HEK293/H_CLDN6 cells were incubated with hu-Abs (from 100 nM, 6 folds dilution, 8 points). After incubation at 4° C. for 60 minutes. Cells were pelleted and washed twice with 2% FBS/PBS buffer, and stained with fluorescent conjugated secondary antibody at 4° C. for 30 minutes. After that the cells were washed twice and resuspended in 80 μL of 2% FBS/PBS buffer. Fluorescent signal of binding was detected using Agilent. The EC50 was calculated using the GraphPad software.

[2] = molecular target: T2, human Claudin 3; test: flow cytometry, CHOK1/H_CLDN3 cells, Ab titrated from 100 nM
Experimental: (§2) In this example, cell-based binding of hu Abs on human CLDN3 expressing cells were assessed using flow cytometry.
as §1, with “CHOK1/H_CLDN3” for “HEK293/H_CLDN6”

[3] = molecular target: T3, human Claudin 9; test: flow cytometry, HEK293/H_CLDN9 cells
Experimental: In this example, cell-based binding of z5 toward human CLDN9 engineering expressing cells were assessed using flow cytometry.
as §1, with “2 cell lines” for “the HEK293/H_CLDN6 cells”, “antibodies” for “hu-Abs”, “points)” for “points). After incubation”

[4] = molecular target: T3, human Claudin 9; test: flow cytometry, HEK293/H_CLDN9 cells, Ab titrated from 100 nM
Experimental: In this example, cell-based binding of hu Abs on human CLDN9 expressing cells were assessed using flow cytometry.
as §1, with “HEK293/H_CLDN9” for “HEK293/H_CLDN6”, “software (LaJolla, CA).” for “software.”

[5] = molecular target: T2, human Claudin 3; test: flow cytometry, CHOK1/H_CLDN3 cells
Experimental: as §2
as §1, with “CHOK1/H_CLDN3” for “HEK293/H_CLDN6”

[6] = molecular target: T1, human Claudin 6; test: cell-based or functional assay

Binder	Top MFI [1]	Top MFI [2]	binding result [3]	Top MFI [4]	binding result [5]	Min cell viability, OV90 (CLDN6 low) [6]	Min cell viability, OVCAR-3 (CLDN6 mid) [6]	Min cell viability, PA-1 (CLDN6 high) [6]
97-C10E1-2-P1.z3 (antibody, V domains shown) VH: QVQLVQSGAEVKKPGASVKVSCKASGYAFTGYTMNWVRQAPGQGLEWIGLSNPYNAGTIYNQKFKGRVTMTVDKSTSTVYMELSSLRSEDTAVYYCARNYYYGSSYAYYYAMDYWGQGTTVTVSS VL: DAQMTQSPSSLSASVGDRVTITCRSSTGAVTTSNYANWVQQKPGKAPKLLIGGTNNRAPGVPSRFSGSGSGTDATLTISSLQPEDFATYYCALWYSNHWVFGGGTKVEIK	27400	133	no binding (tested: 100 nM (highest concentration tested))	594	no binding (tested: 100 nM (highest concentration tested))			
97-C10E1-2-P1.z5 (antibody, V domains shown, also called candidate antibody) VH: QVQLVQSGAEVKKPGASVKVSCKASGYAFTGYTMNWVRQAPGQGLEWIGLSNPYNAGTIYNQKFKGRVTMTVDKSTSTVYMELSSLRSEDTAVYYCARNYYYGSSYAYYYAMDYWGQGTTVTVSS VL: DIVVTQSPSSLSTSVGDRVTITCRSSTGAVTTSNYANWVQEKPGKAFKGLIGGTNNRAPGVPARFSGSLSGDDAALTISSAQPEDFATYFCALWYSNHWVFGGGTKVEIK		254		1560	no binding (tested: 100 nM (highest concentration tested))			
97-C10E1-2-P1.z8 (antibody, V domains shown) VH: QVQLQQSGAEVKKPGASVKVSCKASGYAFTGYTMNWVRQAPGQNLEWIGLSNPYNAGTIYNQKFKGRVTLTVDKSTSTVYMELLSLRSEDTAVYYCARNYYYGSSYAYYYAMDYWGQGTTVTVSS VL: DAQMTQSPSSLSASVGDRVTITCRSSTGAVTTSNYANWVQQKPGKAPKLLIGGTNNRAPGVPSRFSGSGSGTDATLTISSLQPEDFATYYCALWYSNHWVFGGGTKVEIK	16300	137	no binding (tested: 100 nM (highest concentration tested))	542	no binding (tested: 100 nM (highest concentration tested))			
97-C10E1-2-P1.z10 (antibody, V domains shown) VH: QVQLQQSGAEVKKPGASVKVSCKASGYAFTGYTMNWVRQAPGQNLEWIGLSNPYNAGTIYNQKFKGRVTLTVDKSTSTVYMELLSLRSEDTAVYYCARNYYYGSSYAYYYAMDYWGQGTTVTVSS VL: DIVVTQSPSSLSTSVGDRVTITCRSSTGAVTTSNYANWVQEKPGKAFKGLIGGTNNRAPGVPARFSGSLSGDDAALTISSAQPEDFATYFCALWYSNHWVFGGGTKVEIK	121000	160	no binding (tested: 100 nM (highest concentration tested))	258	no binding (tested: 100 nM (highest concentration tested))			
97-C10E1-2-P1.z13 (antibody, V domains shown) VH: QVQLQQSGAEVKKPGASMKISCKASGYAFTGYTMNWVRQAPGQNLEWIGLSNPYNAGTIYNQKFKGRATLTVDKSTSTAYMELLSLRSEDTAVYYCARNYYYGSSYAYYYAMDYWGQGTTVTVSS VL: DAQMTQSPSSLSASVGDRVTITCRSSTGAVTTSNYANWVQQKPGKAPKLLIGGTNNRAPGVPSRFSGSGSGTDATLTISSLQPEDFATYYCALWYSNHWVFGGGTKVEIK	15500	131	no binding (tested: 100 nM (highest concentration tested))	315	no binding (tested: 100 nM (highest concentration tested))			
97-C10E1-2-P1.z15 (antibody, V domains shown) VH: QVQLQQSGAEVKKPGASMKISCKASGYAFTGYTMNWVRQAPGQNLEWIGLSNPYNAGTIYNQKFKGRATLTVDKSTSTAYMELLSLRSEDTAVYYCARNYYYGSSYAYYYAMDYWGQGTTVTVSS VL: DIVVTQSPSSLSTSVGDRVTITCRSSTGAVTTSNYANWVQEKPGKAFKGLIGGTNNRAPGVPARFSGSLSGDDAALTISSAQPEDFATYFCALWYSNHWVFGGGTKVEIK	128000	138	no binding (tested: 100 nM (highest concentration tested))	186	no binding (tested: 100 nM (highest concentration tested))			
97-C10E1-2-P1.z6 (antibody, V domains shown) VH: QVQLQQSGAEVKKPGASVKVSCKASGYAFTGYTMNWVRQAPGQNLEWIGLSNPYNAGTIYNQKFKGRVTLTVDKSTSTVYMELLSLRSEDTAVYYCARNYYYGSSYAYYYAMDYWGQGTTVTVSS VL: EAVMTQSPATLSVSPGERATLSCRSSTGAVTTSNYANWVQQKPGQAPRLLIGGTNNRAPGIPARFSGSGSGDEATLTISSLQSEDFAVYFCALWYSNHWVFGGGTKVEIK	32200	139	no binding (tested: 100 nM (highest concentration tested))	417	no binding (tested: 100 nM (highest concentration tested))			
97-C10E1-2-P1.z2 (antibody, V domains shown) VH: QVQLVQSGAEVKKPGASVKVSCKASGYAFTGYTMNWVRQAPGQGLEWIGLSNPYNAGTIYNQKFKGRVTMTVDKSTSTVYMELSSLRSEDTAVYYCARNYYYGSSYAYYYAMDYWGQGTTVTVSS VL: EAVVTQSPATLSVSPGERATLSCRSSTGAVTTSNYANWVQEKPGQAFRGLIGGTNNRAPGIPARFSGSLSGDEATLTISSLQSEDFAVYFCALWYSNHWVFGGGTKVEIK	207000	247		2520	no binding (tested: 100 nM (highest concentration tested))			
z5-DXD (antibody, V domains shown, DXD conjugated to the antibody; residues and drug load not stated) VH: QVQLVQSGAEVKKPGASVKVSCKASGYAFTGYTMNWVRQAPGQGLEWIGLSNPYNAGTIYNQKFKGRVTMTVDKSTSTVYMELSSLRSEDTAVYYCARNYYYGSSYAYYYAMDYWGQGTTVTVSS VL: DIVVTQSPSSLSTSVGDRVTITCRSSTGAVTTSNYANWVQEKPGKAFKGLIGGTNNRAPGVPARFSGSLSGDDAALTISSAQPEDFATYFCALWYSNHWVFGGGTKVEIK						90.5%	24.5%	14.1%
z5-LM-D01 (antibody, V domains shown, LM-D01 conjugated to the antibody (structure only as a drawing); residues and drug load not stated) VH: QVQLVQSGAEVKKPGASVKVSCKASGYAFTGYTMNWVRQAPGQGLEWIGLSNPYNAGTIYNQKFKGRVTMTVDKSTSTVYMELSSLRSEDTAVYYCARNYYYGSSYAYYYAMDYWGQGTTVTVSS VL: DIVVTQSPSSLSTSVGDRVTITCRSSTGAVTTSNYANWVQEKPGKAFKGLIGGTNNRAPGVPARFSGSLSGDDAALTISSAQPEDFATYFCALWYSNHWVFGGGTKVEIK						87.9%	0.2%	7.75%
z5-LM-D03 (antibody, V domains shown, LM-D03 conjugated to the antibody (structure only as a drawing); residues and drug load not stated) VH: QVQLVQSGAEVKKPGASVKVSCKASGYAFTGYTMNWVRQAPGQGLEWIGLSNPYNAGTIYNQKFKGRVTMTVDKSTSTVYMELSSLRSEDTAVYYCARNYYYGSSYAYYYAMDYWGQGTTVTVSS VL: DIVVTQSPSSLSTSVGDRVTITCRSSTGAVTTSNYANWVQEKPGKAFKGLIGGTNNRAPGVPARFSGSLSGDDAALTISSAQPEDFATYFCALWYSNHWVFGGGTKVEIK						30.4%	20.3%	12.1%
